Source: IntAct's records for PubMed 31515488

B1: Caspase recruitment domain-containing protein 9 (Homo sapiens), Q9H257 (parent)
chain: MSDYENDDECWSVLEGFRVTLTSVIDPSRITPYLRQCKVLNPDDEEQVLSDPNLVIRKRKVGVLLDILQRTGHKGYVAFLESLELYYPQLYKKVTGKEPARVFSMIIDASGESGLTQLLMTEVMKLQKKVQDLTALLSSKDDFIKELRVKDSLLRKHQERVQRLKEECEAGSRELKRCKEENYDLAMRLAHQSEEKGAALMRNRDLQLEIDQLKHSLMKAEDDCKVERKHTLKLRHAMEQRPSQELLWELQQEKALLQARVQELEASVQEGKLDRSSPYIQVLEEDWRQALRDHQEQANTIFSLRKDLRQGEARRLRCMEEKEMFELQCLALRKDSKMYKDRIEAILLQMEEVAIERDQAIATREELHAQHARGLQEKDALRKQVRELGEKADELQLQVFQCEAQLLAVEGRLRRQQLETLVLSSDLEDGSPRRSQELSLPQDLEDTQLSDKGCLAGGGSPKQPFAALHQEQVLRNPHDAGLSSGEPPEKERRRLKESFENYRRKRALRKMQKGWRQGEEDRENTTGSDNTDTEGS
B2: Ligand of Numb protein X 2 (Homo sapiens), Q8N448 (parent)
chain: MGTTSDEMVSVEQTSSSSLNPLCFECGQQHWTRENHLYNYQNEVDDDLVCHICLQPLLQPLDTPCGHTFCYKCLRNFLQEKDFCPLDRKRLHFKLCKKSSILVHKLLDKLLVLCPFSSVCKDVMQRCDLEAHLKNRCPGASHRRVALERRKTSRTQAEIENENGPTLLDPAGTLSPEADCLGTGAVPVERHLTSASLSTWSEEPGLDNPAFEESAGADTTQQPLSLPEGEITTIEIHRSNPYIQLGISIVGGNETPLINIVIQEVYRDGVIARDGRLLAGDQILQVNNYNISNVSHNYARAVLSQPCNTLHLTVLRERRFGNRAHNHSDSNSPREEIFQVALHKRDSGEQLGIKLVRRTDEPGVFILDLLEGGLAAQDGRLSSNDRVLAINGHDLKYGTPELAAQIIQASGERVNLTIARPGKPQPGNTIREAGNHSSSSQHHTPPPYYSRPSSHKDLTQCVTCQEKHITVKKEPHESLGMTVAGGRGSKSGELPIFVTSVPPHGCLARDGRIKRGDVLLNINGIDLTNLSHSEAVAMLKASAASPAVALKALEVQIVEEATQNAEEQPSTFSENEYDASWSPSWVMWLGLPSTLHSCHDIVLRRSYLGSWGFSIVGGYEENHTNQPFFIKTIVLGTPAYYDGRLKCGDMIVAVNGLSTVGMSHSALVPMLKEQRNKVTLTVICWPGSLV
partner: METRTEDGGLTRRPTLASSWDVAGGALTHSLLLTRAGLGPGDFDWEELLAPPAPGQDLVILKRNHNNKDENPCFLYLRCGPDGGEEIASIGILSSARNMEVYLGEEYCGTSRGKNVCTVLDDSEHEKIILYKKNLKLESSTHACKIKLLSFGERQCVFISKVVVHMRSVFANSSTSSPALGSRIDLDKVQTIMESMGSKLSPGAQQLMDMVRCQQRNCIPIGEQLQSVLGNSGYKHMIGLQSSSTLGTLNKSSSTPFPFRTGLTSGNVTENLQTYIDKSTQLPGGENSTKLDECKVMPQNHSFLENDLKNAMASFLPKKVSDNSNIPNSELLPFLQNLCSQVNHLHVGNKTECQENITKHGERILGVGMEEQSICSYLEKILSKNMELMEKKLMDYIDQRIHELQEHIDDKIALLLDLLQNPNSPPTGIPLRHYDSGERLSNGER
B3: Docking protein 3 (Homo sapiens), Q7L591 (parent)
chain: MTRGARLRSDARAQLNQLSLDGGTGSGQKGKCEEFPSSLSSVSPGLEAAALLLAVTMDPLETPIKDGILYQQHVKFGKKCWRKVWALLYAGGPSGVARLESWEVRDGGLGAAGDRSAGPGRRGERRVIRLADCVSVLPADGESCPRDTGAFLLTTTERSHLLAAQHRQAWMGPICQLAFPGTGEASSGSTDAQSPKRGLVPMEENSIYSSWQEVGEFPVVVQRTEAATRCQLKGPALLVLGPDAIQLREAKGTQALYSWPYHFLRKFGSDKGVFSFEAGRRCHSGEGLFAFSTPCAPDLCRAVAGAIARQRERLPELTRPQPCPLPRATSLPSLDTPGELREMPPGPEPPTSRKMHLAEPGPQSLPLLLGPEPNDLASGLYASVCKRASGPPGNEHLYENLCVLEASPTLHGGEPEPHEGPGSRSPTTSPIYHNGQDLSWPGPANDSTLEAQYRRLLELDQVEGTGRPDPQAGFKAKLVTLLSRERRKGPAPCDRP
B4: Notch homolog 2 N-terminal-like protein A (Homo sapiens), Q7Z3S9 (parent)
chain: MCVTYHNGTGYCKCPEGFLGEYCQHRDPCEKNRCQNGGTCVAQAMLGKATCRCASGFTGEDCQYSTSHPCFVSRPCLNGGTCHMLSRDTYECTCQVGFTGKECQWTDACLSHPCANGSTCTTVANQFSCKCLTGFTGQKCETDVNECDIPGHCQHGGTCLNLPGSYQCQCLQGFTGQYCDSLYVPCAPSPCVNGGTCRQTGDFTFECNCLPETVRRGTELWERDREVWNGKEHDEN
partner: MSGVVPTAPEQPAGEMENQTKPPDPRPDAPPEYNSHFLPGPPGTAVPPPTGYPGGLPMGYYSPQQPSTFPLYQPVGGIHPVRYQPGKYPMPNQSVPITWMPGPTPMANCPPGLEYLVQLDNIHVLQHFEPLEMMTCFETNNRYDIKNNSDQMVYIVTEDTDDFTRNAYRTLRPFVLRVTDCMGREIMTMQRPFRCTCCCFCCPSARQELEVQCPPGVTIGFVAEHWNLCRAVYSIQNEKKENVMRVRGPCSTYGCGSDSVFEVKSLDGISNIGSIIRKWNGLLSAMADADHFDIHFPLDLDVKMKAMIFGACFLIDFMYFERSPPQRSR
B5: Protein Dr1 (Homo sapiens), Q01658 (parent)
chain: MASSSGNDDDLTIPRAAINKMIKETLPNVRVANDARELVVNCCTEFIHLISSEANEICNKSEKKTISPEHVIQALESLGFGSYISEVKEVLQECKTVALKRRKASSRLENLGIPEEELLRQQQELFAKARQQQAELAQQEWLQMQQAAQQAQLAAASASASNQAGSSQDEEDDDDI
partner: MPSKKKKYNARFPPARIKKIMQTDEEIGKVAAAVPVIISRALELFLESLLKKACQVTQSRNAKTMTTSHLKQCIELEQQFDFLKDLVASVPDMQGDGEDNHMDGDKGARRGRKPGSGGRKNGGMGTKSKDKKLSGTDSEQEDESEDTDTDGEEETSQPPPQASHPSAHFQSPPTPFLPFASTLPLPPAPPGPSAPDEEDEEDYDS
B6: Protein FRA10AC1 (Homo sapiens), Q70Z53 (parent)
chain: MHGHGGYDSDFSDDERCGESSKRKKRTVEDDLLLQKPFQKEKHGKVAHKQVAAELLDREEARNRRFHLIAMDAYQRHTKFVNDYILYYGGKKEDFKRLGENDKTDLDVIRENHRFLWNEEDEMDMTWEKRLAKKYYDKLFKEYCIADLSKYKENKFGFRWRVEKEVISGKGQFFCGNKYCDKKEGLKSWEVNFGYIEHGEKRNALVKLRLCQECSIKLNFHHRRKEIKSKKRKDKTKKDCEESSHKKSRLSSAEEASKKKDKGHSSSKKSEDSLLRNSDEEESASESELWKGPLPETDEKSQEEEFDEYFQDLFL

Variants of: B1
Settings: with pak5_human PAK5, Q9P286
pak5_human PAK5, Q9P286, sequence (Q9P286 whole entry, looked up): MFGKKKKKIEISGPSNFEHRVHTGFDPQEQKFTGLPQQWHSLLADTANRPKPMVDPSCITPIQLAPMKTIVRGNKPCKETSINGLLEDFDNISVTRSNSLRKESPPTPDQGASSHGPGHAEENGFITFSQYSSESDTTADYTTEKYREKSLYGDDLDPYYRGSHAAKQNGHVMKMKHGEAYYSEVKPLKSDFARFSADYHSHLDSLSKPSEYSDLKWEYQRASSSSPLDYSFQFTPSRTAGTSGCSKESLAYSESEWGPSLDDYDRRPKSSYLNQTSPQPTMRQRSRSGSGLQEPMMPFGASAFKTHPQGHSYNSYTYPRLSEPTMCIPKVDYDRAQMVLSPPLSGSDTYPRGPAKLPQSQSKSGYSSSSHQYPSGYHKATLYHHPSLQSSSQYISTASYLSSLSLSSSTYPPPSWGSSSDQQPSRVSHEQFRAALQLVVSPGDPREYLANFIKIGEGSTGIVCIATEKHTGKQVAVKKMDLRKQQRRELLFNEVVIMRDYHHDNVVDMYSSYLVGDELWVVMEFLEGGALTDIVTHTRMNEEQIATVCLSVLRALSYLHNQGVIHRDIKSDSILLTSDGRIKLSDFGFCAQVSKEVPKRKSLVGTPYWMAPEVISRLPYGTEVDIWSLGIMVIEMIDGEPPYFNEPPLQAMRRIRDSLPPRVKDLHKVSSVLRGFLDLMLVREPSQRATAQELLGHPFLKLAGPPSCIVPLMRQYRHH

Row | Variant | effect of a mutation on the interaction
1 | V385L | with no effect

Variants of: B1
Settings: with zn572_human ZNF572, Q7Z3I7
zn572_human ZNF572, Q7Z3I7, sequence (Q7Z3I7 whole entry): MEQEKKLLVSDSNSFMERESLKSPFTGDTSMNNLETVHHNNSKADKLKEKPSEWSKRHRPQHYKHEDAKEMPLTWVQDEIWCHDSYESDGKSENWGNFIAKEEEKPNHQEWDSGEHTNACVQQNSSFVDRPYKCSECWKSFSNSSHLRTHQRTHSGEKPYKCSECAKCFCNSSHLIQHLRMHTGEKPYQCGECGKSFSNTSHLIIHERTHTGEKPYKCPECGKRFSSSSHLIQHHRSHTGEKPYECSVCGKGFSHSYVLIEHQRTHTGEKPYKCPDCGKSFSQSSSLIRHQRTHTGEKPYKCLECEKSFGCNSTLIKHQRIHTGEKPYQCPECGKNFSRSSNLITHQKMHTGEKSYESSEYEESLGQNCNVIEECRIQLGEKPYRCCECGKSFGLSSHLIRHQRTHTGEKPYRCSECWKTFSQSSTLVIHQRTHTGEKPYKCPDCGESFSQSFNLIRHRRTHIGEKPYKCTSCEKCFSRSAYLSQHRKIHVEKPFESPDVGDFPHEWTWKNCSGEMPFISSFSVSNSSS

Row | Variant | effect of a mutation on the interaction
2 | V385L | disrupting interaction strength

Variants of: B1
Settings: with tri23_human TRIM23, P36406
tri23_human TRIM23, P36406, sequence (P36406 whole entry): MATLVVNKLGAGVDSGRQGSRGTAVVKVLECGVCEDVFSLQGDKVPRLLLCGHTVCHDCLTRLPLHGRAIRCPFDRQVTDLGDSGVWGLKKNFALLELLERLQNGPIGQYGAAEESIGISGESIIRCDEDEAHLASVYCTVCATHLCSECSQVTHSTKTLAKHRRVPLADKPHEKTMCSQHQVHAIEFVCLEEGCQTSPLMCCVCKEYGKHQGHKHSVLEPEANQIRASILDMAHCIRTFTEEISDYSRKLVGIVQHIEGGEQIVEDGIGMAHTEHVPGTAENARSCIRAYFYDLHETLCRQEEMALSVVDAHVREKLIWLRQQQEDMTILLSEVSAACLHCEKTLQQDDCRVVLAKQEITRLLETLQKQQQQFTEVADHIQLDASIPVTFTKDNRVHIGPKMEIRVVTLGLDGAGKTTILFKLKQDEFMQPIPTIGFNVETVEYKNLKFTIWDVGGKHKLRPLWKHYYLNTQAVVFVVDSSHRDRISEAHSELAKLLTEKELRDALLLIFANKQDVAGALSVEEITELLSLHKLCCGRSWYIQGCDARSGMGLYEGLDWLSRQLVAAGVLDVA

Row | Variant | effect of a mutation on the interaction
3 | R173H | with no effect

Variants of: B1
Settings: with KRT19, P08727
KRT19, P08727, sequence (P08727 whole entry): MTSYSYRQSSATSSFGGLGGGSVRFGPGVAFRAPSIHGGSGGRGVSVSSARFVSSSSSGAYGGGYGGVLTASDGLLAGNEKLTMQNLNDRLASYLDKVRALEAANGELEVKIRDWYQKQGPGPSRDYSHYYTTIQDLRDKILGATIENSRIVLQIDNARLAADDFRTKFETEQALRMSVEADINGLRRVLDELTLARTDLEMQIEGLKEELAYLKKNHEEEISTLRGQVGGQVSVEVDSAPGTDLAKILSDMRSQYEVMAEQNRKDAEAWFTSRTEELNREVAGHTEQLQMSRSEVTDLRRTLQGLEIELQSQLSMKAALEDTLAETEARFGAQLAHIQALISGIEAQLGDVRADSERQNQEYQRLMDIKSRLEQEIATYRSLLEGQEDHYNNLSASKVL

Row | Variant | effect of a mutation on the interaction
4 | R173H | with no effect

Variants of: B2
Settings: with paat_human PAAT

Row | Variant | effect of a mutation on the interaction
5 | T183I | with no effect
6 | V145I | with no effect

Variants of: B3
Settings: with traf1_human TRAF1, Q13077
traf1_human TRAF1, Q13077, sequence (Q13077 whole entry): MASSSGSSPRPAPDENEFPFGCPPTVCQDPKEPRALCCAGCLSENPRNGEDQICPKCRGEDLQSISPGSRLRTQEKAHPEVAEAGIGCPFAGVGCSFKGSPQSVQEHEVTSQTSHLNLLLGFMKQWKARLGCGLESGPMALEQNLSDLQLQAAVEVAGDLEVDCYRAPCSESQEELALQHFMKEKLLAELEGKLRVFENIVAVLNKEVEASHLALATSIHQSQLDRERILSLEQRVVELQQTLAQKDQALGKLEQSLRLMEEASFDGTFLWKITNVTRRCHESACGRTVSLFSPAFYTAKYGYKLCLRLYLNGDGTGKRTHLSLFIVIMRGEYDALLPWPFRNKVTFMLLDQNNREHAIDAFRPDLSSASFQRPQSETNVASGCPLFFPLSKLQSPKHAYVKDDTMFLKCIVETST

Row | Variant | effect of a mutation on the interaction
7 | R229H | with no effect

Variants of: B4
Settings: with pls4_human PLSCR4, Q9NRQ2

Row | Variant | effect of a mutation on the interaction
8 | R74Q | with no effect
9 | A115T | with no effect

Variants of: B5
Settings: with nc2a_human DRAP1, Q14919

Row | Variant | effect of a mutation on the interaction
10 | E171D | with no effect

Variants of: B6
Settings: with tri41_human TRIM41, Q8WV44

Row | Variant | effect of a mutation on the interaction
11 | S251F | with no effect
